B1: Tripartite motif-containing protein 49C, residues 87 to 133; numbered along this chain, P0CI26 (parent)
chain: SSEEQMCGTHRETKKIFCEVDRSLLCLLCSSSQEHRYHRHRPIEWAA
B2: Tyrosine-protein kinase BTK, residues 215 to 273; numbered along this chain, Q06187 (parent)
chain: ELKKVVALYDYMPMNANDLQLRKGDEYFILEESNLPWWRARDKNGQEGYIPSNYVTEAE

Variants of: B1
Assay: abundance fitness (aPCA) (normalised: wild type 0, dead -1); higher = more abundant; growth selection in yeast, the domain comes from the species named
Conditions: Homo sapiens

Abundance fitness of substitutions, site by site:
A47: V 0.142 | S -0.565 | D 0.438 | P 0.019 | R 0.04 | M -0.025 | W -0.144 | N -0.007 | L -0.493 | G -0.078 | E -0.375 | H -0.036 | C -0.591
I43: V 0.023 | T -0.54 | R -0.385 | S -0.011 | W -0.395 | E 0.24 | K 0.352 | F 0.594 | A 0.405 | M -0.37 | G -0.215 | P -0.524 | Y 0.335
E44: T -0.2 | F -0.82 | H -0.738 | Q -0.489 | N -0.065 | K -0.298 | I -0.359 | R -0.507 | G -0.181 | P -0.449 | S -0.089 | W -0.598 | V -0.603 | C -0.525 | A -0.411 | M -0.488 | Y -0.652 | L -0.52
W45: S 0.292 | G 0.236 | F 0.153 | A 0.282 | I 0.12 | Y 0.256 | C 0.18 | L 0.122 | H 0.361 | T 0.345 | R 0.111 | M 0.255 | D 0.479 | Q 0.224 | P 0.346 | K 0.518
A46: W -0.156 | H -0.276 | P 0.2 | G 0.056 | L -0.039 | V -0.203 | R -0.249 | N -0.124 | M -0.008 | Q -0.085 | T 0.194 | E -0.076 | S 0.056 | F -0.184 | I -0.863 | D 0.09 | K -0.368

Variants of: B2
Assay: as above
Conditions: Homo sapiens

Abundance fitness, by site and new letter:
D10: C -0.783 | G -0.168 | F -0.758 | N -0.102
A16: M -0.141 | S -0.042 | F -0.18 | T -0.031 | L -0.083 | E 0.013 | K -0.068 | I -0.229 | P -0.093 | R -0.055 | Q 0.016 | D 0.044 | H -0.026 | N -0.045 | C -0.063
P13: E -0.343 | L -0.734 | R -0.153 | Y -0.774 | N -0.275 | D -0.458 | K -0.119 | G -0.068 | I -0.193 | Q -0.296 | M -0.406 | C -0.235 | H -0.51 | A -0.082 | W -0.778 | F -1.08 | S -0.081
V6: Q -0.025 | H -0.154 | E -0.135 | C -0.103 | G -0.636 | K -0.023 | S -0.19 | W -0.067 | M -0.1 | P -0.796 | F -0.073 | R -0.093 | I -0.028 | T -0.017 | L -0.052
Y9: N 0.07 | P -0.663 | S 0.053 | V 0.031 | G -0.018 | W -0.053 | E 0.001 | R 0.057 | K 0.073 | D -0.007 | L 0.056 | F 0.012 | C 0.006 | Q 0.098 | A 0.062 | M 0.053
Y11: W 0.017 | T -0.182 | Q -0.316 | H -0.155 | D -0.72 | L -0.094 | G -0.709 | E -0.562 | F 0.005 | R 0.032 | N -0.383 | S -0.161 | V -0.298 | I -0.245 | C -0.202 | P -0.704 | M -0.099
N15: G 0.065 | T 0.089 | R 0.026 | I -0.079 | V 0.052 | S 0.059

From the Human Domainome abundance scans (Beltran et al. 2025)
